Changes are numbered by the printed parent chain.
T1: recombinant human galectin-10, TEV-cleaved (human, UniProt Q05315 1-142)
T1 sequence: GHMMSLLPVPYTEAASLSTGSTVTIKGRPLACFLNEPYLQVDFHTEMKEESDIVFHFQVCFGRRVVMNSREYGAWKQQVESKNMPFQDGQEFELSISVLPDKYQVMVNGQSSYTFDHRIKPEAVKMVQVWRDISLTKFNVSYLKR

T2: human galectin-10-His (recombinant human galectin-10 with TEV-cleavable N-terminal His-tag) (human)
T2 construct: SEC-MALLS: dimer in solution; also called Gal10-His; humanGal10-His
T2 chain: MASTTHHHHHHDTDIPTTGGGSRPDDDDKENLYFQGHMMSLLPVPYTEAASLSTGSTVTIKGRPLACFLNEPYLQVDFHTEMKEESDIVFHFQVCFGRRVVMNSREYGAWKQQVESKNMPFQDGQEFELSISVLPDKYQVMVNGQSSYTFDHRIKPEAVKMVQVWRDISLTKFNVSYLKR

T3: human galectin-10-His (human)
T3 construct: The last M of the tag may be Met1 of galectin-10; also called humanGal10-His; hGal10
T3 chain: T2 chain

T4: TEV-cleaved wild-type recombinant human galectin-10 (soluble, in Fab complexes, or as recombinant galectin-10 … (human, UniProt Q05315 1-142))
T4 sequence: T1 sequence

B1: 8H11 Fab (Fab, V domains shown)
VH: ELQLVESGGGLVQPGGSLRLSCAASGFTFSTNYMNWVRQAPGKGLEWVSGITSGGGRTYYADSVKGRFTISRDNAKNTLYLQMNSLKPEDTALYYCARTDHAWLDAWGQGTLVTVSS
VL: QAGLTQPPSVSGTLGKTVTISCAGTSSDVGYGNYVSWYQQLPGTAPKLLIYAVSTRASGIPDRFSGSKSGNTASLTISGLLSEDEADYYCASYRSSNNYVFGGGTKLTVL
notes: Fab with human CH1 (including part of the hinge region) and human lambda constant domain; also called 8H11 hFab
B2: 10A06 Fab (Fab, V domains shown)
VH: QVQLVESGGGLVQPGGSLRLSCAASGFTFGNYDMSWVRQAPGKGPEWVSDINSGGGSTYYADSVKGRFTISRDNAKNSLLLQMNSLKPEDTAVYYCATGYTGYYYWGQGTQVTVSS
VL: QTVVTQEPSLSVSPGGTVTLTCGLSSGSVTSSNYPAWYQQTPGQAPRALIYSINSRHSGVPDRFSGSISGNKAALTITGAQAEDEADYYCTLYMGTGSNNVVFGGGTHLTVL
notes: Fab with human CH1 (including part of the hinge region) and human lambda constant domain; also called 10A06 hFab
B3: 7B07 Fab (Fab, V domains shown)
VH: QVQLVESGGGLVQPGGSLRLSCAASGFTFRSYDMSWVRQAPGKGPEWVSAIKNGGGITYYADSVKGRFTISRDNAKNTLYLQMNSLKPEDTAVYYCATTHGIGTLGFGSWGQGTQVTVSS
VL: SYELTQSASVSVALTQTAKITCDGNNIGSKSAQWYQQKPGQAPALVIYADEYRPEGIPERFSGSNSGNTATLIISGAQAEDEADYYCQVWDGSAAVFGRGTHLTVL
notes: Fab with human CH1 (including part of the hinge region) and human lambda constant domain; also called 7B7; 7B07 hFab
B4: 10B02 Fab (Fab, V domains shown)
VH: QVQLVESGGGLVQPGGSLRVSCAASGFTFSYHYMNWVRQAPGKGLEWVSGISAGGGRTYYADSVKGRFTISRDNAKNTLYLQMNSLNAEDTALYYCARVHGITNDYWGQGTQVTVSS
VL: QSALTQPPSVSGSPGKTVTISCAGTSSDVGYGNYVSWYQQLPGMAPKLLIYEVNKRASGITDRFSGSKSGNTAFLTISGLQSEDEADYYCASYRNSNNWVFGGGTHLTVL
notes: Fab with human CH1 (including part of the hinge region) and human lambda constant domain; also called 10B02 hFab
B5: 10D02 Fab (Fab, V domains shown)
VH: EVQLVESGGGLVQPGGSLRVSCAASGFTFSSYYMSWVRQAPGKGLEWVSGIVTGGGRTHYTDSVKGRFTITRDNAKNTLYLQMNSLRPEDTALYYCARVNGVVTNYDYWGQGTQVTVSS
VL: B4 VL with S2A, A3V, E52D, F74S, Y89F, N95S, S96P, W99V, G103Q
notes: Fab with human CH1 (including part of the hinge region) and human lambda constant domain; also called 10D2; 10D02 hFab
B6: 4G05 scFv-human Fc (Fc fusion)
scFv: QLQVVESGGGLVQTGGSLTLSCTTSGFTFSRYWMIWVRQAPGKGLEWVSSIYNDGGNTYYADSVKGRFTISRDNSENTLYLQMNSLKSEDTAVYYCAKLKAAYYGMDYWGKGTLVTVSSGGGGSGGGGSGGGGSSSALTQPSAVSVSLGQTARITCQGANLGRYYGIWYQQKPGQAPVQVIYGDSNRPSGIPERFSGSSSGGTATLTISGAQAEDEADYYCQSYESSTSPVFGGGTHLTVL
notes: about 100 kDa on SDS-PAGE; also called 4G05 ScFv-hFc; not shown: CH2-CH3 constant domains of human IgG1 (vector pUPEX50)
B7: 4B10 scFv-human Fc (Fc fusion)
scFv: QLQLVESGGGLVQPGGSLRLSCAASGFTFSNYWMYWVRQAPGKGLEWVSAIDVGGGTTDYAGSVKGRFTISRDNTKSTVYLQMNTLKPEDTALYYCLRGGSYYGGMDYWGKGTLVTVSSGGGGSGGGGSGGGGSQSALTQPSAVSVSLGQTARITCQGAKLGRYYGIWYQQKPGQAPVQVIYGDSNRPSGIPERFSGSSSGGTATLTISGAQAEDEADYYCQSYESSTSPVFGGGTHLTVL
notes: about 100 kDa on SDS-PAGE; also called 4B10 ScFv-hFc; not shown: CH2-CH3 constant domains of human IgG1 (vector pUPEX50)
B8: 4H10 scFv-human Fc (Fc fusion)
scFv: QVQLVESGGGLVQPGGSLRLSCAASGFTFDDYAMSWVRQAPGKGLEWVSAISWNGGSTYYAESMKGRFTISRDNAKNTLYLQMNSLKSEDAAVYYCAKDLSASGSYYHTFGSWGQGTQVTVSSGGGGSGGGGSGGGGSQAGLTQPPSVAGTLGKTVTISCAGTSSDVGYGDYVSWYQHIPGTAPKLLIYKVKTRASGIPDRFSGSKSGNTASLTISGLQSGDESDYYCASYKNGGTAVFGGGTHLTVL
notes: about 100 kDa on SDS-PAGE; also called 4H10 ScFv-hFc; not shown: CH2-CH3 constant domains of human IgG1 (vector pUPEX50)
B9: 2E11 scFv-human Fc (Fc fusion)
scFv: EVQLVESGGGLVQPGGSLRLSCAASGFTFSSYAMSWVRQAPGKGLEWVSPINSGSDSASYVDSVKGRFTISRDNAKNTLYLQMNSLKPEDTAVYYCAKARTSVVAGGMDYWGKGTLVTVSSGGGGSGGGGSGGGGSQSALTQPSAVSVSLGQTARITCQGGKFGSYYVSWYQQKPGQAPVMVIYKDNERPSGIPERFSGSSSGSTSTLTISGAQAEDEGTYYCQSGSSSDNIVFGGGTELTVF
notes: about 100 kDa on SDS-PAGE; also called 2E11 ScFv-hFc; not shown: CH2-CH3 constant domains of human IgG1 (vector pUPEX50)
B10: 2C07 scFv-human Fc (Fc fusion)
scFv: ELQLVESGGGLVQPGGSLRLSCAASGFTFSSYAMSWVRQAPGKGLEWVSNINSGGGSTGYADSVKGRFTISRDNAKNTLYLQMNSLKPEDMAVYYCAKYLRTYYPNAAFGMDYWGKGTLVTVSSGGGGSGGGGSGGGGSQAVLTQPSAVSVSLGQTARITCQGGNFGRYYASWYQQKPGQAPVLVIYRDSERPSGIPERFSGSSSGDTATLTISGAQAEDEADYYCQSGRSSDNAVFGGGTHLTGL
notes: about 100 kDa on SDS-PAGE; also called 2C07 ScFv-hFc; not shown: CH2-CH3 constant domains of human IgG1 (vector pUPEX50)
B11: 2B11 scFv-human Fc (Fc fusion)
scFv: QVQLQESGPGLVKPSQTLSLTCTVSGGSITTNYYYWSWIRQPPGKGLEWMGAIAYSGSTYYSPSLKSRTSISRDTSKNQFTLQLSSVTPEDTAVYYCARAPYGISREYDYWGQGTQVTVSSGGGGSGGGGSGGGGSHSAVTQPSAVSVSLGQTARITCQGGKFGRYYASWYQQKPGQAPVLVIYKDSERPSGIPERFSGSSSGDTATLSISGAQAEDEADYFCQSGRSSDNAVFGGGTHLTVL
notes: about 100 kDa on SDS-PAGE; also called 2B11 ScFv-hFc; not shown: CH2-CH3 constant domains of human IgG1 (vector pUPEX50)
B12: 6F05 scFv-human Fc (Fc fusion)
scFv: QLQLVESGGGLVQPGGSLRLSCAASGFTFSSYAMSWVRQAPGKGLEWVSAINSGGGSTSYADSVKGRFTISRDNAKNTLYLQMNSLKPEDTAVYYCATPGDRLWYYRYDYWGQGTQVTVSSGGGGSGGGGSGGGGSQAGLTQPPSVSGTLGKAVTISCAGTSSDIGYGNYVSWYQQLPGTAPKLLIYKVSRRASGVPDRFSGSKSGNTASLSISGLQSEDEADYYCASYRYRNNVVFGGGTHLTVL
notes: Positive control from the first panel; also called 6F5; not shown: CH2-CH3 constant domains of human IgG1 (pUPEX50 scFv-Fc fusion vector)

target: T1, recombinant human galectin-10, …; assay: cell-based or functional assay

Binder | 50% crystal dissolution (min), 50 uM [min] | 90% crystal dissolution (min), 50 uM [min]
B1 | 48.5 | > 120
B2 | 49.1 | > 120
B3 | 15.1 | 54.1
B4 | 102 | > 120
B5 | 59.7 | > 120

Target: T2, human galectin-10-His (recombinant …)
Assay: SPR Biacore T3000, scFv-hFc captured by anti-human Fc, galectin-10-His as analyte
Experimental: In order to determine the binding properties (on-rate/off-rate) of the scFv-human Fc panel, their binding capacity to galectin-10 was analyzed on Biacore T3000. For this purpose, a capture approach was set up. A CM5 Chip was coated with polyclonal anti-human Fc at 8000 RU, then a fixed concentration of the scFv-human Fc panel (1.5 μg/mL), diluted in HBS-EP pH7.4, were captured to reach a binding signal around 150 RU. Finally, a serial dilution of galectin-10-His (serial dilution, 1 over 2 from 5 μg/mL, 6 points of dilution) diluted in HBS-EP pH7.4 was injected. Raw data were analyzed via BIA evaluation software with a blank subtraction (4-3). The kd/KD and Rmax of each scFv-human Fc for galectin-10-His was determined using the Fit Kinetics simultaneous ka/kd/Binding with mass transfer/Local Rmax on BIA evaluation software.

Binder | Kd [nM] | koff [s⁻¹]
B6 | 0.911 | 0.0437
B7 | 1.94 | 0.0128
B8 | 1.55 | 0.00277
B9 | 1.16 | 0.0111
B10 | 0.677 | 0.000259
B11 | 0.875 | 0.018

Target: T2, human galectin-10-His (recombinant …)
Assay: ELISA, scFv-hFc on coated galectin-10-His (0.2 ug/mL)
Experimental: In a similar setup to that used during the initial screening, the relative binding properties of the 12 scFv-human Fc clones were analyzed by ELISA. Briefly, a Maxisorp plate was coated with galectin-10-His at 0.2 μg/mL and blocked with casein, before being incubated with a serial dilution of the scFv-human Fc fusion molecules. After several washing steps, detection of the bound scFv-human Fc was carried out with an anti-human Fc-HRP antibody. Absorbance was measured at 450 nm (reference at 620 nm) with Tecan instrument. Finally, the raw data (OD values) were plotted on GraphPad Prism 7.01. The EC50 value of each compound was calculated with a non-linear regression (log(agonist) vs. response Variable slope (four parameters)).

Binder | Bmax (OD values) [OD] | EC50 [nM]
B6 | 3.03 | 0.09
B7 | 1.28 | 0.08
B8 | 1.3 | 0.2
B9 | 1.43 | 0.14
B10 | 2.89 | 0.05
B11 | 2.43 | 0.08

Target: T3, human galectin-10-His
Assay: ELISA, coated antigen 0.2 ug/mL
Experimental: In a similar setup to that used during the initial screening, the relative binding properties of the 11 new scFv-human Fc clones were analyzed by ELISA. Briefly, a Maxisorp plate was coated overnight with human or cynomolgus WGS or YRT isoforms of galectin-10-His at 0.2 μg/mL and blocked with PBS 1% casein, before being incubated with a serial dilution of the scFv-human Fc fusion molecules (from 100 nM, dilution 1/5, 8 points of dilutions). After several washing steps, detection of the bound scFv-human Fc was carried out with an anti-human Fc-HRP antibody (Jackson ImmunoResearch, Catalog 109-035-008). Absorbance was measured at 450 nm (reference at 620 nm) with Tecan instrument. Finally, the raw data (OD values) were plotted on GraphPad Prism 7.01. The EC50 values of each clone, calculated with a non-linear regression (log(agonist) vs. response Variable slope (four parameters)) are reported in Table 19 below. As a positive control, clone 6F05 from the previous galectin-10 antibody panel was included.

Binder | Bmax [OD] | EC50 [nM]
B12 | 2.4 | 0.02

target: T4, TEV-cleaved wild-type recombinant human …; assay: cell-based or functional assay

Binder | 100% Solubilization of CLC (Conc uM) [µM]
B6 | 4.36
B7 | 6.14
B8 | 6
B9 | 4.36
B10 | 6.86
B11 | 5.04

Target: T3, human galectin-10-His
Assay: ELISA, galectin-10-His coated at 1 ug/mL, Fab
Experimental: The binding capacity of the lead anti-galectin-10 Fabs was tested by binding ELISA. Briefly, a Maxisorp plate was coated overnight with 1 μg/mL of human galectin-10-His. Then a serial dilution of each clone (from 4 μM, dilution 1/4, 12 points of dilutions) was incubated on coated galectin-10. After several washing steps, detection of the bound Fab was carried out with an anti-human IgG Fab specific-peroxidase. Absorbance was measured at 450 nm (reference at 620 nm) with Tecan instrument.

Binder | Bmax [OD] | EC50 [nM]
B1 | 0.95 | 24.3
B2 | 0.36 | 89.5
B3 | 0.65 | 24.4
B4 | 0.74 | 61.2
B5 | 1.03 | 16.1
